Test results taken from patent US20220242962A1 (APTEVO RESEARCH AND DEVELOPMENT, published 2022).

Key:
Test in all cases: SPR, Fc captured, receptor as analyte
[1] = biological target: T1, Fc gamma receptor RIIA R167 (human, UniProt P12318 36-218)
T1 construct: soluble SPR analyte
T1 sequence (looked up): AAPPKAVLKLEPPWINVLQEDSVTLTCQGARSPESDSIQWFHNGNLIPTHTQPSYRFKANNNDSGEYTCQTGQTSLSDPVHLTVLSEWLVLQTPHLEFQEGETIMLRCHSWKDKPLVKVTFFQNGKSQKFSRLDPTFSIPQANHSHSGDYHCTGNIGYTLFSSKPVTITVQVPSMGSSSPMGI
Description: (§1) Fc mutations to be potentially integrated into an ADAPTIR™ bispecific construct were analyzed for binding to the common Fc receptors (human and cyno) and C1Q, which is a component of the complement activation system. SPR experiments were conducted at 25° C. in HBS-EP+ buffer on a Biacore T200 system.
(§2) For these experiments, all four flow cells of a CM5 sensor chip were immobilized with goat F(ab′)2 anti-human Fc (Jackson ImmunoResearch) to a response level of ˜4000 RU. Fc variants and wild type Fc were diluted to 100 nM in HBS-EP+ and captured on the surface of the chip for 120 seconds at a flow rate of 10 μL/min. Fcγ receptors (human and cyno, all purchased from R&D Systems) and complement (C1Q, purchased from Quidel Corporation and Complement Technology, Inc) were diluted in HBS-EP+ and then flowed as analytes at 30 μL/min for 120 seconds followed by a 120 seconds dissociation. Regeneration was achieved by flowing 10 mM glycine pH 1.7 at 30 μL/min for 30 seconds followed by a 60 seconds stabilization. Flow cell 1 was always left as a blank (no captured protein) for purposes of background signal subtraction. Blank-subtracted sensorgrams for each captured Fc variant were inspected for the presence of binding to any of the Fcγ receptor proteins or complement. There are polymorphisms in the Human Fc receptors IIA and RIIIA, so both sequences were tested for binding.

[2] = biological target: T2, Fc gamma receptor RIIB/C (human, UniProt P31994 46-217)
T2 construct: soluble SPR analyte
T2 sequence (looked up): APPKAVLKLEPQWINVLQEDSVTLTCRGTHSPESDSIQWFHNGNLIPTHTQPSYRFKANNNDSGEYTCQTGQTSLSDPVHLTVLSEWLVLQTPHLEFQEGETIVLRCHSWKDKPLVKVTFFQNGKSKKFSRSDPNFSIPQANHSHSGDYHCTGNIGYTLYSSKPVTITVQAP
Description: as §1, §2

[3] = biological target: T3, Fc gamma receptor RIIIB (human, UniProt O75015 17-200)
T3 construct: soluble SPR analyte
Description: as §1, §2

Measured: binding result

T3 sequence (O75015 17-200): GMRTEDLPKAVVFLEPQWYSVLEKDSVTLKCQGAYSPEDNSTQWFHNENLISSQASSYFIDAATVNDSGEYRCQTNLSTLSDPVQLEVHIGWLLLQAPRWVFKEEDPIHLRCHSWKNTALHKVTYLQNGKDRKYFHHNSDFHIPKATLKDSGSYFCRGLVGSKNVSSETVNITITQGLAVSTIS

B1: TSC 1005 (other)
chain: EPKSSDKTHTCPPCPAPPVAAPSVFLFPPKPKDTLMISRTPEVTCVVVDVSHEDPEVKFNWYVDGVEVHNAKTKPREEQYNSTYRVVSVLTVLHQDWLNGKEYKCAVSNKALPAPIEKTISKAKGQPREPQVYTLPPSRDELTKNQVSLTCLVKGFYPSDIAVEWESNGQPENNYKTTPPVLDSDGSFFLYSKLTVDKSRWQQGNVFSCSVMHEALHNHYTQKSLSLSPG
notes: IgG1 Fc with E233P, L234V, L235A, deletion of G236, G237A, K322A (EU); also called PVAdel TSC01005
no binding: [1] | [2] | [3]
